The results in this text go back to paper PMC3156716.

The series has as its target T1, His6-PhoP (Pseudomonas aeruginosa PAO1?) (UniProt Q9I4F9).
T1 sequence: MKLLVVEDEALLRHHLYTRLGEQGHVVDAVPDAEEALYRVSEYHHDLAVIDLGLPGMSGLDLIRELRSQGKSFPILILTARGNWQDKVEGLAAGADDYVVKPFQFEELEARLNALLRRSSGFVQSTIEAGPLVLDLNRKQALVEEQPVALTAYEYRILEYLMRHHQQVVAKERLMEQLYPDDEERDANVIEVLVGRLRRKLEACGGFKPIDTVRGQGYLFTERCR
Put plainly: EMSA. Conditions: DIG Gel Shift Kit 2nd Generation (Roche) per manufacturer; 6% native polyacrylamide gel; buffer, salt, pH and temperature not stated. In general terms: In EMSA bound probe runs differently from free probe, usually more slowly.

For the sequence “GAGGATCCCAGGAGTGATATTAGCGATTCCCAGTGCTCCCGCAACCTGCCAGAAAACCCAGCGAAGCTTCTTCGGCAGCCATTTTAGAAAAATATATTCCTTTAATTTCAATAAGTTACTTAAATTCACCGAGCGTTTTTGGCAAACCTCCCGGGCATTTATCTACTTAGGCTCACACGCCGTGTAAGTTAATGCTTACAAGAGCAGACACAAAAAACCCGGCGGATCCTC (double strand) [rsmZ promoter, full length]”, the binding result is listed as “binds”. “GAGGATCCGTGAATGGCCGGATTATAGCCAAGTGGCCGTGGCAACGGCATAGGCCGCGGAAGCGCCGTGCGGCGCCCGCGGCTTCGGGCCCGGTCAGGACTCGCCGCGCTCGCGGGCGATGGCACGGTAGCCGATGTCCTTGCGGTAGAAGCAGCCGTTCCAGCGGATCTTCTCGGCCAGGCGATAGGCCTGTTGCTGGGCGGCGGACACGCTCTCGCCGATGGCGGTGGCACAGAGCACGCGGCCGCCTCGAGTC (double strand) [truncated retS promoter, 255 bp, lacking PhoP box]”: the binding entry was “no binding”.
